Assay results as given in IntAct's records for PubMed 31515488.

B1: Peroxisomal bifunctional enzyme (Homo sapiens), Q08426 (parent)
chain: MAEYTRLHNALALIRLRNPPVNAISTTLLRDIKEGLQKAVIDHTIKAIVICGAEGKFSAGADIRGFSAPRTFGLTLGHVVDEIQRNEKPVVAAIQGMAFGGGLELALGCHYRIAHAEAQVGLPEVTLGLLPGARGTQLLPRLTGVPAALDLITSGRRILADEALKLGILDKVVNSDPVEEAIRFAQRVSDQPLESRRLCNKPIQSLPNMDSIFSEALLKMRRQHPGCLAQEACVRAVQAAVQYPYEVGIKKEEELFLYLLQSGQARALQYAFFAERKANKWSTPSGASWKTASARPVSSVGVVGLGTMGRGIVISFARARIPVIAVDSDKNQLATANKMITSVLEKEASKMQQSGHPWSGPKPRLTSSVKELGGVDLVIEAVFEEMSLKKQVFAELSAVCKPEAFLCTNTSALDVDEIASSTDRPHLVIGTHFFSPAHVMKLLEVIPSQYSSPTTIATVMNLSKKIKKIGVVVGNCFGFVGNRMLNPYYNQAYFLLEEGSKPEEVDQVLEEFGFKMGPFRVSDLAGLDVGWKSRKGQGLTGPTLLPGTPARKRGNRRYCPIPDVLCELGRFGQKTGKGWYQYDKPLGRIHKPDPWLSKFLSRYRKTHHIEPRTISQDEILERCLYSLINEAFRILGEGIAASPEHIDVVYLHGYGWPRHKGGPMFYASTVGLPTVLEKLQKYYRQNPDIPQLEPSDYLKKLASQGNPPLKEWQSLAGSPSSKL
partner: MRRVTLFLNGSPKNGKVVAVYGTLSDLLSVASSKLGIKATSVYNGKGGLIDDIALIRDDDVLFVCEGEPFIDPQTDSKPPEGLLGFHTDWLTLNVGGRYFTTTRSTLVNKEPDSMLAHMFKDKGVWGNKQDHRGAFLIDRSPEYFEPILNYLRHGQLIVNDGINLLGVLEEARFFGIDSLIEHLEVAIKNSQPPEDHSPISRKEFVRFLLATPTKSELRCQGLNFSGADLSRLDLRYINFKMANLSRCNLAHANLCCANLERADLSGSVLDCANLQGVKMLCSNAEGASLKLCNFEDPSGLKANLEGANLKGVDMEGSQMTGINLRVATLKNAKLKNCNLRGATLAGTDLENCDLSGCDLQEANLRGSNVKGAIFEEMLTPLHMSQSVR
B2: Glutathione S-transferase A2 (Homo sapiens), P09210 (parent)
chain: MAEKPKLHYSNIRGRMESIRWLLAAAGVEFEEKFIKSAEDLDKLRNDGYLMFQQVPMVEIDGMKLVQTRAILNYIASKYNLYGKDIKEKALIDMYIEGIADLGEMILLLPFSQPEEQDAKLALIQEKTKNRYFPAFEKVLKSHGQDYLVGNKLSRADIHLVELLYYVEELDSSLISSFPLLKALKTRISNLPTVKKFLQPGSPRKPPMDEKSLEESRKIFRF
partner: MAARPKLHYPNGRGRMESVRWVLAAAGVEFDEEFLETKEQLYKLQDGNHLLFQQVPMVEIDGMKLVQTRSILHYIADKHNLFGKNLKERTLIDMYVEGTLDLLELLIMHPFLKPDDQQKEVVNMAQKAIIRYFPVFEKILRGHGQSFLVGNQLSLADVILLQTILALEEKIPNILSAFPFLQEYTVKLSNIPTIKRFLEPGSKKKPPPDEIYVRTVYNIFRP
B3: Protein LDOC1 (Homo sapiens), O95751 (parent)
chain: MVDELVLLLHALLMRHRALSIENSQLMEQLRLLVCERASLLRQVRPPSCPVPFPETFNGESSRLPEFIVQTASYMLVNENRFCNDAMKVAFLISLLTGEAEEWVVPYIEMDSPILGDYRAFLDEMKQCFGWDDDEDDDDEEEEDDY

Variants of: B1
Conditions: with kctd9_human KCTD9, Q7L273

Q: For R483Q, which “effect of a mutation on the interaction” value is on record?
A: disrupting interaction strength

Q: I646T was tested. Which “effect of a mutation on the interaction” value did it give?
A: disrupting interaction strength

Q: With S703F as the variant, how does the “effect of a mutation on the interaction” value read?
A: with no effect

Q: With L715S as the variant, how does the “effect of a mutation on the interaction” value read?
A: disrupting interaction strength

Variants of: B2
Conditions: with gsta4_human GSTA4, O15217

Q: For MAEKPKLHYSNIRGRMESIRWLLAAAGVEFEEKFIKSAEDLDKLRNDGYLMFQQVPMVEIDGMKLVQTRAILNYIASKYNLYGKDIKEKALIDMYIEGIADLGEMILLLPFSQPEEQDAKLALIQEKTKNRYFPAFEKVLKSHGQDYLVGNKLSRADIHLVELLYYVEELDSSLISSFPLLKALKTRISNLPTVKKFLQPGSPRKPPMDAKSLEESRKIFRF [E210A], which “effect of a mutation on the interaction” value is on record?
A: with no effect

Variants of: B3
Conditions: with ch033_human C8orf33, Q9H7E9
Sequence of ch033_human C8orf33, Q9H7E9 (Q9H7E9 whole entry): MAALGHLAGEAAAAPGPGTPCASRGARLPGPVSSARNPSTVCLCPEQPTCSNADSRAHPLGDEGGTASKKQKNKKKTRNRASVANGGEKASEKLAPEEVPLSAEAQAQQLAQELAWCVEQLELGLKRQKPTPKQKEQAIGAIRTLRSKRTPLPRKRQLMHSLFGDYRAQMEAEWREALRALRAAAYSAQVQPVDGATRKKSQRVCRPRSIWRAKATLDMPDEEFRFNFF

Q: With L12H as the variant, how does the “effect of a mutation on the interaction” value read?
A: with no effect

Variants of: B3
Conditions: with KRT15, P19012
Sequence of KRT15, P19012 (P19012 whole entry): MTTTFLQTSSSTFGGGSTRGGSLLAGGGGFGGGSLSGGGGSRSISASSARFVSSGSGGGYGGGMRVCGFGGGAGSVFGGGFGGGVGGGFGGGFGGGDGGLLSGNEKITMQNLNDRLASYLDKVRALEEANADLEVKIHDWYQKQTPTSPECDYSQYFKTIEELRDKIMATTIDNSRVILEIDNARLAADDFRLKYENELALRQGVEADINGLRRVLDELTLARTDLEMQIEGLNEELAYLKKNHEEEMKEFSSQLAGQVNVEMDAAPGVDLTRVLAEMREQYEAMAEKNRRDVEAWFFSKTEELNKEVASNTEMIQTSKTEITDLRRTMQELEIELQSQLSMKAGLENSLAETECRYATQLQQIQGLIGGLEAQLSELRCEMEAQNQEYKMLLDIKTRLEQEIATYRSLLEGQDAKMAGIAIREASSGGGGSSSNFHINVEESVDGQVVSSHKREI

Q: Which “effect of a mutation on the interaction” value does the source give for L12H here?
A: with no effect

Variants of: B3
Conditions: with atf4_human ATF4, P18848
Sequence of atf4_human ATF4, P18848 (P18848 whole entry): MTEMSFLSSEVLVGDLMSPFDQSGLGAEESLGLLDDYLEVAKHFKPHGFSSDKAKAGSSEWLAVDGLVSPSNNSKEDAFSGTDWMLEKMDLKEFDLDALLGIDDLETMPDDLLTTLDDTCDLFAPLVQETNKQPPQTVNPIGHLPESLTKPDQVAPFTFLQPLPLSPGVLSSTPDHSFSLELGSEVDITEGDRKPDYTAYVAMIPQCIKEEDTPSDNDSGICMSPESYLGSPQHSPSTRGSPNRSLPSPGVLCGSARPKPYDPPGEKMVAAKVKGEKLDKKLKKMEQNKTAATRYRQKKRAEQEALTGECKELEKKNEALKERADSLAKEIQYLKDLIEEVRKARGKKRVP

Q: With L12H as the variant, how does the “effect of a mutation on the interaction” value read?
A: with no effect

Variants of: B3
Conditions: with bard1_human BARD1, Q99728
Sequence of bard1_human BARD1, Q99728 (Q99728 whole entry): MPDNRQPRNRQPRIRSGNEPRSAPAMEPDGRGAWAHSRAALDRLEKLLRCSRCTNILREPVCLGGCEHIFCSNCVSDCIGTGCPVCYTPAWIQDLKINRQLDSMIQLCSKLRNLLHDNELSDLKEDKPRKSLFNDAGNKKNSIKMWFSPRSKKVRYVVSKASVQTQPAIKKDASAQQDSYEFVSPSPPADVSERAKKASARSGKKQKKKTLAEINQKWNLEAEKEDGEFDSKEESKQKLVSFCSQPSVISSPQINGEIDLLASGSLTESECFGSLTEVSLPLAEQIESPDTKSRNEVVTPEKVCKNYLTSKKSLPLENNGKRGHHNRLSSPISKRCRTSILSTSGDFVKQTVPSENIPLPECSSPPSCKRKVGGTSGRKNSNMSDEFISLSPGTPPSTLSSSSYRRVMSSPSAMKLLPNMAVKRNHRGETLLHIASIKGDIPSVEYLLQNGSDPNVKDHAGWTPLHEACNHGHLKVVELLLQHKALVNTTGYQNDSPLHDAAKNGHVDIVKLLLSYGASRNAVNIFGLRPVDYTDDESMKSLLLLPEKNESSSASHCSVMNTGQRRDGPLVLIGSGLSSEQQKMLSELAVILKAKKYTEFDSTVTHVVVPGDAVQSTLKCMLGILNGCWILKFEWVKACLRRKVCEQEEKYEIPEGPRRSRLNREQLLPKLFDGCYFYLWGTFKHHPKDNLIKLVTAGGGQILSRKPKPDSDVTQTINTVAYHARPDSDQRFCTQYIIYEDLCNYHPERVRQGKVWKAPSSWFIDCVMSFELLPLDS

Q: Which “effect of a mutation on the interaction” value does the source give for L12H here?
A: disrupting interaction strength

Variants of: B3
Conditions: with prp31_human PRPF31, Q8WWY3

Q: L12H was tested. Which “effect of a mutation on the interaction” value did it give?
A: disrupting interaction strength

Variants of: B3
Conditions: with prc1_human PRC1, O43663
Sequence of prc1_human PRC1, O43663 (O43663 whole entry): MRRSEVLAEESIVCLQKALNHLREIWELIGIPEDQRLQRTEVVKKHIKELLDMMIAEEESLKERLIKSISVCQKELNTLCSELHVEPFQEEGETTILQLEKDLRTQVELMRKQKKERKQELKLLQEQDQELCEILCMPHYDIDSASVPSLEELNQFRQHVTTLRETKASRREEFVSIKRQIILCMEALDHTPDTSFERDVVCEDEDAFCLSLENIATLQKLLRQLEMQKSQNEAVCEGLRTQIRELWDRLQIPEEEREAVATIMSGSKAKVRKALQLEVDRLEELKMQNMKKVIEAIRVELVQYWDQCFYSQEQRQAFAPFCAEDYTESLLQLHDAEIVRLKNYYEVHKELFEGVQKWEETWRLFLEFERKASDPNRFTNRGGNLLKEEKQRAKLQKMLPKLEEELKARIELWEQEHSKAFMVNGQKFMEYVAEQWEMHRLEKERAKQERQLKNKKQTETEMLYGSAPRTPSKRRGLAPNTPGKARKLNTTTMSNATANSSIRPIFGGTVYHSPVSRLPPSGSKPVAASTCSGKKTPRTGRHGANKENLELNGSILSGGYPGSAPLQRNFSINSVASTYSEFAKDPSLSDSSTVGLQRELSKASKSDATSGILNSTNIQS

Q: How did the “effect of a mutation on the interaction” value turn out when L12H was run?
A: disrupting interaction strength

Variants of: B3
Conditions: with zbt24_human ZBTB24, O43167
Sequence of zbt24_human ZBTB24, O43167 (O43167 whole entry): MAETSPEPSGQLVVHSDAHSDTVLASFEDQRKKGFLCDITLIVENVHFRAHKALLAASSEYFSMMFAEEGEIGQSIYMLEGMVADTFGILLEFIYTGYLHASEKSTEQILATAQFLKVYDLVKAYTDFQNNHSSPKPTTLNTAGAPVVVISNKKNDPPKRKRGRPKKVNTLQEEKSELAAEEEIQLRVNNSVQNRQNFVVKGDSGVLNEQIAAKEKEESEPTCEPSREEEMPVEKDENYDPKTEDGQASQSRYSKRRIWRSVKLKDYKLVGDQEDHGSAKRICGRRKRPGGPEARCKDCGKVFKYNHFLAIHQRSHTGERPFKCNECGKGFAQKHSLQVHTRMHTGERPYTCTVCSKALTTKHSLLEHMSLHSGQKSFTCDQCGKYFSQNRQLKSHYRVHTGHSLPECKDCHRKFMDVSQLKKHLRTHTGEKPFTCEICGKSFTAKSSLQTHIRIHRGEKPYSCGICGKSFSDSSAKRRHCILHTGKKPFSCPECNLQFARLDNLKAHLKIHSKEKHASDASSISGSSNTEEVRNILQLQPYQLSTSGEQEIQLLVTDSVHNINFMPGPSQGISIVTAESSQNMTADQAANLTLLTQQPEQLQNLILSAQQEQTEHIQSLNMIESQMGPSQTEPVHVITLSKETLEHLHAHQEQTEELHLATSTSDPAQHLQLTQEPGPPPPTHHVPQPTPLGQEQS

Q: How did the “effect of a mutation on the interaction” value turn out when L12H was run?
A: disrupting interaction strength

Variants of: B3
Conditions: with vatg1_human ATP6V1G1, O75348
Sequence of vatg1_human ATP6V1G1, O75348 (O75348 whole entry): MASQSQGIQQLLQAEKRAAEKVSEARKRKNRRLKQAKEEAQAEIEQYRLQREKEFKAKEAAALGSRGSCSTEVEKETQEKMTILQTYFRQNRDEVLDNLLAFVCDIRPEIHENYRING

Q: L12H was tested. Which “effect of a mutation on the interaction” value did it give?
A: disrupting interaction strength

Variants of: B3
Conditions: with exoc7_human EXOC7, Q9UPT5

Q: Which “effect of a mutation on the interaction” value does the source give for L12H here?
A: disrupting interaction strength

Variants of: B3
Conditions: with tha10_human THAP10, Q9P2Z0

Q: L12H was tested. Which “effect of a mutation on the interaction” value did it give?
A: disrupting interaction strength

Variants of: B3
Conditions: with zn250_human ZNF250, P15622
Sequence of zn250_human ZNF250, P15622 (P15622 whole entry): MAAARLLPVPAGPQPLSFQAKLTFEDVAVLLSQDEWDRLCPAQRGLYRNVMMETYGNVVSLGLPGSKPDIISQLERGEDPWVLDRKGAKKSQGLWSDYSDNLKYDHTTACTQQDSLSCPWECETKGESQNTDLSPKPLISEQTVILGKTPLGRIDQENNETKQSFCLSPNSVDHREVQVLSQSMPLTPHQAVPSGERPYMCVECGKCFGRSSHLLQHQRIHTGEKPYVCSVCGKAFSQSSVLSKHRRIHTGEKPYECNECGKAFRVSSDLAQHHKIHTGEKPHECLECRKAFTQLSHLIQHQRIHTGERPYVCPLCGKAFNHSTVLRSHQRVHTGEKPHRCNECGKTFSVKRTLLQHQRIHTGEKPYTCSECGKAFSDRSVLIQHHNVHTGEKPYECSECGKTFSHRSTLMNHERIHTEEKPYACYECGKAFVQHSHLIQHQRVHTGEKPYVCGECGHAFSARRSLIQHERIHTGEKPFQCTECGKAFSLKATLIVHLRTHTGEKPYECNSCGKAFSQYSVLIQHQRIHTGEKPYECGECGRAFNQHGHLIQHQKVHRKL

Q: With L12H as the variant, how does the “effect of a mutation on the interaction” value read?
A: disrupting interaction strength

Variants of: B3
Conditions: with smrd1_human SMARCD1, Q96GM5
Sequence of smrd1_human SMARCD1, Q96GM5 (Q96GM5 whole entry): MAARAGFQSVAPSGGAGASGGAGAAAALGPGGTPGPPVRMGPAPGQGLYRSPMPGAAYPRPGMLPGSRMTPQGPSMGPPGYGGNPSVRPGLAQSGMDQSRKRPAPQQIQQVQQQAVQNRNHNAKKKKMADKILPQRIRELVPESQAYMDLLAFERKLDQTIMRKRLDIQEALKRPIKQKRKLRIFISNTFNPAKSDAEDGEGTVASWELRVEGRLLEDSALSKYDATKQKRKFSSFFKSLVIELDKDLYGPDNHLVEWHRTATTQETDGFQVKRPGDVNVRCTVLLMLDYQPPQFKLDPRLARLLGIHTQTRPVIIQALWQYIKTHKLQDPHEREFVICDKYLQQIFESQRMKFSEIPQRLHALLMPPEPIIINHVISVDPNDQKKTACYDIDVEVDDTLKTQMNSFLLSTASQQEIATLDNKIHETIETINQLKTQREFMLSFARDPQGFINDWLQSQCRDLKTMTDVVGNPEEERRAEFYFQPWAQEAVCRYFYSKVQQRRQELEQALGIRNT

Q: How did the “effect of a mutation on the interaction” value turn out when L12H was run?
A: disrupting interaction strength

Variants of: B3
Conditions: with mmta2_human MMTAG2, Q9BU76
Sequence of mmta2_human MMTAG2, Q9BU76 (Q9BU76 whole entry): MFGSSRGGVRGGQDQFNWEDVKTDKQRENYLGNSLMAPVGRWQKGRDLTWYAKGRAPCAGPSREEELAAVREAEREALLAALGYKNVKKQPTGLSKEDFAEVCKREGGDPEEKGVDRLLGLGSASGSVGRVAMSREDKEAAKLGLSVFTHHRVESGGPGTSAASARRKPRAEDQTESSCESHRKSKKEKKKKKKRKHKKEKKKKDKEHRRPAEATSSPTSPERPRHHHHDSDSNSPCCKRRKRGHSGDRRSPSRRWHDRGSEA

Q: L12H was tested. Which “effect of a mutation on the interaction” value did it give?
A: disrupting interaction strength

Variants of: B3
Conditions: with tnnt1_human TNNT1, P13805
Sequence of tnnt1_human TNNT1, P13805 (P13805 whole entry): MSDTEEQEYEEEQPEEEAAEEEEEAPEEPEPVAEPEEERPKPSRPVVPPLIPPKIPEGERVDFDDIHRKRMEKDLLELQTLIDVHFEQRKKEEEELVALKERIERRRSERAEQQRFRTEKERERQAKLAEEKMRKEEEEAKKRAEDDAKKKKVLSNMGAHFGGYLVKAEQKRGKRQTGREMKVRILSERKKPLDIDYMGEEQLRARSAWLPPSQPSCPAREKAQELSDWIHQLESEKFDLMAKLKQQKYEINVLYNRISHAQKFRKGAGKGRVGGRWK

Q: L12H was tested. Which “effect of a mutation on the interaction” value did it give?
A: disrupting interaction strength

Variants of: B3
Conditions: with aebp2_human AEBP2, Q6ZN18

Q: L12H was tested. Which “effect of a mutation on the interaction” value did it give?
A: with no effect
